The source of these data is patent US20250145973, “CONDITIONED DNA MODIFYING ENZYME COMPRISING HETEROLOGOUS DNA BINDING DOMAIN” (Technische Universität Dresden Körperschaft des …, published 2025).

The series deals with Brec1-Zif268 (aa278) Rmut (synthetic). Briefly: cell_activity; 100 ug/ml L-arabinose, E. coli. Particulars: tags: G-to-R in right linker.
Chain of Brec1-Zif268 (aa278) Rmut (synthetic) (chain, as listed by the source): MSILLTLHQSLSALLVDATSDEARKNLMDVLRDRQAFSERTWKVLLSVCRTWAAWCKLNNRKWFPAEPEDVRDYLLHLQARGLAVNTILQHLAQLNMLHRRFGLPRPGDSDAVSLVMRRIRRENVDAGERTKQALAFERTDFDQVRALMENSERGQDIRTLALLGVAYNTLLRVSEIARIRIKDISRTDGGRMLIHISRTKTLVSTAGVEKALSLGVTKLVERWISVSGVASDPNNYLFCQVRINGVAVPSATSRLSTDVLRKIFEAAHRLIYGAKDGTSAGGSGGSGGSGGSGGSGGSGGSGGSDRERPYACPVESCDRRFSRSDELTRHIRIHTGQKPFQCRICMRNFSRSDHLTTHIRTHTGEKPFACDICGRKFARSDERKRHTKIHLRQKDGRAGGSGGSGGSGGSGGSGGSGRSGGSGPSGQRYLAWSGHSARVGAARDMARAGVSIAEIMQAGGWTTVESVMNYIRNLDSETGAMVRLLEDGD

B1: loxBTR-5-zif (A) (dsDNA)
DNA 1: AGCGTGGGCGTACTGAACCCACTGCTTAAGCCTCAATAAAGCTTGCCTTCAGTACGCCCACGCT
DNA 2: AGCGTGGGCGTACTGAAGGCAAGCTTTATTGAGGCTTAAGCAGTGGGTTCAGTACGCCCACGCT
As for B1, the binding signal amounted to 2.5 fold vs Brec1-Zif268.
